Results from PMC4042526.

Target: Tbx20^eh1mut-EGFP (mouse) (UniProt Q9ES03)
Assay: affinity purification with mass spectrometry

Sequence of UniProt Q9ES03 (Q9ES03 whole entry F18L/S19I): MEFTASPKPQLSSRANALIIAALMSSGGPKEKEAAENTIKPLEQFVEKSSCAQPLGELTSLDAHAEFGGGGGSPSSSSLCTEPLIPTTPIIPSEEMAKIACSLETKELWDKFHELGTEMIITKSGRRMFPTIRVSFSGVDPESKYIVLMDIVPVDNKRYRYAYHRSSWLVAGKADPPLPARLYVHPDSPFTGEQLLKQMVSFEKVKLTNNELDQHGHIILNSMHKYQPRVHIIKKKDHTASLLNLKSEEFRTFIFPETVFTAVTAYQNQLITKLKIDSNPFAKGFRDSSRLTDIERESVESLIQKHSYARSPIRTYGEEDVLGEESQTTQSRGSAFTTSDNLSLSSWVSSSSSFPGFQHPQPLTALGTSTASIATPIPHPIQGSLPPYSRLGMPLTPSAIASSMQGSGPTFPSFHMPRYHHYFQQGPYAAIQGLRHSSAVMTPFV

Row | Substance | fold decrease in eh1mut against wild-type Tbx20 (MS1-based)
1 | Transducin-like enhancer of split 1 (from UniProt Q04724 1-770) (natural protein) | > 10 fold
2 | Transducin-like enhancer of split 3 (from UniProt Q04726 1-772) (natural protein) | > 10 fold
